# Target: SCCA1 recombinant protein expressed on transfected HepG2 and CHO cells (human)
substance,measurement,value
HBV viral particles present in the serum of patients with acute hepatitis B,HBV-DNA values of transfected cell lines relative to control cell lines,8 times
